Reference: PMC5948571, “Detection of Metallothionein in Javanese Medaka (Oryzias javanicus), Using a scFv-Immobilized Protein Chip” (Sensors (Basel, Switzerland), 2018)

Biological target: T1, BSA (Bos taurus, UniProt P02769)
T1 construct: BSA (serum albumin), used as negative control protein; also called control protein
Assay: SPR; scFv-Cys3 (50 µg/mL) immobilised directly on a gold chip by thiol-gold, blocked with PEG-thiol; OjaMT (5-30 µg/mL) or BSA (30 µg/mL) flowed at 10 µL/min for 10 min, PBS wash; PBS, room temperature; portable MiCo SPR nano
Settings: both partners purified

T1 sequence (P02769 25-607): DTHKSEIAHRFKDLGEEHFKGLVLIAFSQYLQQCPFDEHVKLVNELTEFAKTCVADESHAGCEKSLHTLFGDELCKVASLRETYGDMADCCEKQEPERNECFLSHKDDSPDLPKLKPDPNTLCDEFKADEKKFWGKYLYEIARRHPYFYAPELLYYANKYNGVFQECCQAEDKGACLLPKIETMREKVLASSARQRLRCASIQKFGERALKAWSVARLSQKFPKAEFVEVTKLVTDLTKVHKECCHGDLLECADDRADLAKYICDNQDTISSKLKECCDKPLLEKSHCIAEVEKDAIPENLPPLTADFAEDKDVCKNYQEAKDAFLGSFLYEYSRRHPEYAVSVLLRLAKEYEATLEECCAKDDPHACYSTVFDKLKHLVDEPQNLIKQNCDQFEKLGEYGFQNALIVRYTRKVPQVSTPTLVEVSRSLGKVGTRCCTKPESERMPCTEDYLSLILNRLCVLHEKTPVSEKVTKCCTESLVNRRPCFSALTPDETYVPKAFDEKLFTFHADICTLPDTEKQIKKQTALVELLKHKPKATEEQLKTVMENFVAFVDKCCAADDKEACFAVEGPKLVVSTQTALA

B1: Cys3-tagged anti-OjaMT single-chain fragment of variable region (scFv-Cys3) (scFv, V domains shown)
VH: EVQLQQSGAELVKPGASVKLSCKASGYTFTSYSMHWVKQRPGQGLEWIGEINPSNGRTNYNEKFKSKATLTVDKSSSTAYMQVSSLTSEDSAVYYCARRSSYWYFDVWGAGTTVTVSS
VL: DVLMTQTPASQSASLGESVTITCLASQTIGTWLAWYQQKPGKSPQLLIYAATSLADGVPSRFSGSGSGTKFSFKISSLQAEDFVSYYCQQLCNPPYTFGGRHQAGNQ
notes: VH of the anti-OjaMT hybridoma, 119 amino acids; (GGGGS)3 GS-linker, 15 amino acids; VL of the anti-OjaMT hybridoma, 107 amino acids; VH-linker-VL cloned NdeI/HindIII in pET-28a(+) (pJDH033); a GS-linker-Cys3 fragment was put into the HindIII/XhoI sites (pJDH043); also called anti-OjaMT scFv; recombinant scFv; not shown: GS-linker-Cys3, C-terminal, kept
Question: Does B1 bind?
Answer: Result: no binding (tested: 30 μg/mL)
